Source: patent US20240226308A1, “DOSING REGIMENS OF PEPTIDE CONJUGATES OF TOPOISOMERASE I INHIBITORS” (CYBREXA 2, INC., priority 2021, published 2024)
“Also recorded” adds a separate entry of the source. Read-outs that look alike come from different tables or passages of the source.

Assays:
[1] = Phase 1/2 study of Compound 1: safety and tolerability (adverse events, NCI CTCAE v5.0); type: in vivo, human
Source text: (§1) This is a first-in-human, Phase 1/2 open-label, multicenter, dose-escalation, safety, pharmacokinetics (PK), and biomarker study of Compound 1 in subjects with advanced or metastatic refractory solid tumors.
• To determine the safety and tolerability, maximum tolerated doses (MTDs) and dose limiting toxicities (DLTs) of Compound 1 in subjects with advanced or metastatic refractory solid tumors when administered on the following schedules: • Daily×5 every 3 weeks (Part A) • Daily×3 every 3 weeks (Part B) • To establish the Recommended Phase 2 Dose (RP2D) of Compound 1 for each schedule
(§2) The subject will receive treatment with Compound 1 and be monitored for safety and disease status by AE assessment, physical examination, laboratory tests, radiologic assessment, and ECG. PK and biomarker samples will be collected. All AEs and serious adverse events (SAEs) will be assessed using the National Cancer Institute Common Terminology Criteria for Adverse Events (NCI CTCAE) v5.0. Disease assessments by computed tomography (CT) or magnetic resonance imaging (MRI) will be conducted at protocol-specific intervals. Subjects may continue treatment as long as they are tolerating treatment without disease progression based on RECIST 1.1.
DLTs will be assessed for all subjects enrolled in Phase I through their initial 3-week cycle of treatment (Cycle 1, the DLT period). Any AE occurring during the DLT period deemed at least possibly related to Compound 1 and meeting the criteria below will be designated a DLT. […] This will, however, be considered in the SRC's subsequent dose-level recommendations.
(§3) Compound 1 was administered as a 1-hour IV infusion. As set forth above, the first patient on study was treated with a starting dose of 0.25 mg/kg, which was dosed daily five times a week every 3 weeks (Schedule A). Initially. an accelerated dose tritation was utilized, wherein single patient cohorts were accrued and the dose was escalated up to 100% for each new cohort until the occurrence of Grade 2 or greater treatment-related adverse events (TRAEs). A single patient was accrued to Cohort A1 (0.25 mg/kg). The dose was doubled to 0.5 mg/kg for Cohort A2, and 3 patients were accrued to this cohort due to the occurrence of greater than Grade 2 level adverse events.
Schedule B: once daily three times per week every three weeks, on a mg/m^2 basis (in other words, the dosage was calculated based on the patient's body surface area)
Schedule C: once weekly on a mg/m^2 basis. Patients treated on this schedule received a sentinel dose on Day -14 followed by 2 weeks of no treatment to evaluate the full PK profile of Compound 1 and exatecan. Once weekly dosing started Cycle 1 Day 1.

[2] = Phase 1/2 study of Compound 1: pharmacokinetics; type: in vivo, human; settings: for half-life: in vivo
Source text: as §1
• To determine the pharmacokinetics (PK) of Compound 1 • To evaluate the preliminary anti-tumor activity of Compound 1 based on Response Evaluation Criteria in Solid Tumors (RECIST) 1.1 as follows: • Objective response rate (ORR) • Duration of response (DoR) • Progression-free survival (PFS)
as §2, §3

[3] = Subject 1-5, Ovarian, prior TOP1 inhibitor Yes, Cohort B1 20 mg/m^2, Schedule B: Daily x 3 Every 3 Weeks
[4] = Subject 1-8, Pancreas, prior TOP1 inhibitor Yes, Cohort C1 20 mg/m^2, Schedule C: Once Weekly
[5] = Subject 1-9, Colorectal, prior TOP1 inhibitor Yes, Cohort B3 45 mg/m^2, Schedule B: Daily x 3 Every 3 Weeks
[6] = Subject 2-4, Appendiceal, prior TOP1 inhibitor Yes, Cohort B2 30 mg/m^2, Schedule B: Daily x 3 Every 3 Weeks
[7] = Subject 2-6, Breast, prior TOP1 inhibitor No, Cohort B2 30 mg/m^2, Schedule B: Daily x 3 Every 3 Weeks
[8] = Subject 2-12, Breast, prior TOP1 inhibitor No, Cohort B4 60 mg/m^2, Schedule B: Daily x 3 Every 3 Weeks
[9] = Subject 3-1, Colorectal, prior TOP1 inhibitor Yes, Cohort B3 45 mg/m^2, Schedule B: Daily x 3 Every 3 Weeks
[10] = Subject 5-2, Colorectal, prior TOP1 inhibitor Yes, Cohort B4 60 mg/m^2, Schedule B: Daily x 3 Every 3 Weeks

CC[C@@]1(O)C(=O)OCc2c1cc1n(c2=O)Cc2c-1nc1cc(F)c(C)c3c1c2[C@@H](NC(=O)O[C@H]1CCCC[C@@H]1SSC[C@H](NC(=O)[C@H](Cc1c[nH]c2ccccc12)NC(=O)[C@H](CC(C)C)NC(=O)[C@H](CC(C)C)NC(=O)[C@H](CC(=O)O)NC(=O)[C@H](CC(C)C)NC(=O)[C@H](CC(C)C)NC(=O)[C@H](CC(C)C)NC(=O)[C@@H](NC(=O)[C@H](CC(=O)O)NC(=O)[C@@H](NC(=O)[C@@H]1CCCN1C(=O)[C@H](Cc1ccccc1)NC(=O)[C@H](CC(C)C)NC(=O)[C@H](CC(C)C)NC(=O)[C@H](CC(=O)O)NC(=O)[C@H](CC(C)C)NC(=O)[C@H](Cc1ccc(O)cc1)NC(=O)[C@H](C)NC(=O)[C@H](CCCNC(=N)N)NC(=O)[C@H](Cc1c[nH]c2ccccc12)NC(=O)[C@@H]1CCCN1C(=O)[C@H](CC(N)=O)NC(=O)[C@H](CCC(N)=O)NC(=O)[C@H](CC(=O)O)NC(=O)[C@H](CC(=O)O)NC(=O)[C@H](C)N)[C@@H](C)O)[C@@H](C)O)C(=O)NCC(=O)O)CC3 [Compound 1]
adverse events, Grade level ([1]; Cohort A2, 0.5 mg/kg, Schedule A, 3 patients): > 2
Treatment-Related Adverse Events, Gr 1 [1, 3]: Gr 1: Fatigue
Treatment-Related Adverse Events, Gr 2 [1, 3]: Dehydration
Treatment-Related Adverse Events ([1]; Subject 1-6, Testicular, prior TOP1 inhibitor No, Cohort B1 20 mg/m^2, Schedule B: Daily x 3 Every 3 Weeks): No TRAEs
Treatment-Related Adverse Events, Gr 2 ([1]; Subject 1-7, Esophageal/GEJ (baseline Hgb 9.4), Cohort B1 20 mg/m^2, Schedule B: Daily x 3 Every 3 Weeks): Gr 2: Anemia
Treatment-Related Adverse Events, Gr 1 ([1]; Subject 1-7, Esophageal/GEJ, prior TOP1 inhibitor No, Cohort B1 20 mg/m^2, Schedule B: Daily x 3 Every 3 Weeks): Gr 1: Fatigue,
Treatment-Related Adverse Events, Gr 1 [1, 4]: Gr 1: Vomiting
Treatment-Related Adverse Events, Gr 2 [1, 4]: Gr 2: Nausea
Treatment-Related Adverse Events, Gr 1 [1, 5]: Gr 1: Vomiting,; also recorded: diarrhea
Treatment-Related Adverse Events, Gr 2 [1, 5]: Gr 2: Nausea
Treatment-Related Adverse Events, Gr 3 ([1]; Subject 1-9, Colorectal, AST/ALT elevation resolved to Gr 1 in 2-3 days, Cohort B3 45 mg/m^2, Schedule B: Daily x 3 Every 3 Weeks): anemia
Treatment-Related Adverse Events ([1]; Subject 2-1, Pancreas, prior TOP1 inhibitor Yes, Cohort C1 20 mg/m^2, Schedule C: Once Weekly): No TRAES
Treatment-Related Adverse Events ([1]; Subject 2-2, Colon, prior TOP1 inhibitor Yes, Cohort C1 20 mg/m^2, Schedule C: Once Weekly, off treatment after PK period): No TRAEs
Treatment-Related Adverse Events, Gr 2 ([1]; Subject 2-3, Ovarian, prior TOP1 inhibitor No, Cohort C1 20 mg/m^2, Schedule C: Once Weekly): Gr 2: Fatigue
Treatment-Related Adverse Events, Gr 1 [1, 6]: Gr 1: Anemia
Treatment-Related Adverse Events, Gr 2 [1, 6]: Gr 2: Nausea,; also recorded: vomiting
Treatment-Related Adverse Events, Gr 3 ([1]; Subject 2-5, Breast, prior TOP1 inhibitor Yes (C4D11), Cohort B2 30 mg/m^2, Schedule B: Daily x 3 Every 3 Weeks): Neutropenia
Treatment-Related Adverse Events, Gr 1 [1, 7]: Gr 1: Fatigue,; also recorded: nausea
Treatment-Related Adverse Events, Gr 2 [1, 7]: Neutropenia,; also recorded: WBC decrease
Treatment-Related Adverse Events ([1]; Subject 2-8, Osteosarcoma, prior TOP1 inhibitor Unknown, Cohort B3 45 mg/m^2, Schedule B: Daily x 3 Every 3 Weeks, removed from study on C1D2): No TRAEs
Treatment-Related Adverse Events ([1]; Subject 2-9, Breast, prior TOP1 inhibitor No, Cohort C1 20 mg/m^2, Schedule C: Once Weekly): No TRAEs
Treatment-Related Adverse Events, Gr 2 ([1]; Subject 2-11, Ovarian (C1D1 Hgb = 10.3), Cohort B3 45 mg/m^2, Schedule B: Daily x 3 Every 3 Weeks): Gr 2: Anemia
Treatment-Related Adverse Events, Gr 3 ([1]; Subject 2-11, Ovarian (resolved in 2 days), Cohort B3 45 mg/m^2, Schedule B: Daily x 3 Every 3 Weeks): Neutropenia
Treatment-Related Adverse Events, Gr 1 ([1]; Subject 2-11, Ovarian, prior TOP1 inhibitor No, Cohort B3 45 mg/m^2, Schedule B: Daily x 3 Every 3 Weeks): Gr 1: Nausea,; also recorded: lipase increase,; also recorded: alopecia
Treatment-Related Adverse Events, Gr 1 [1, 8]: Gr 1: Vomiting
Treatment-Related Adverse Events, Gr 2 [1, 8]: Gr 2: Colitis
Treatment-Related Adverse Events, Gr 4 [1, 8]: Neutropenia,; also recorded: thrombocytopenia
Treatment-Related Adverse Events, Gr 1 [1, 9]: Gr 1: Headache
Treatment-Related Adverse Events, Gr 2 [1, 9]: Gr 2: Nausea,; also recorded: WBC decrease,; also recorded: ANC decrease,; also recorded: diarrhea
Treatment-Related Adverse Events, Gr 2 [1, 10]: Gr2: Vomiting,; also recorded: dehydration
Treatment-Related Adverse Events, Gr 3 [1, 10]: anemia
Treatment-Related Adverse Events, Gr 4 [1, 10]: Neutropenia,; also recorded: thrombocytopenia
accumulation ([2]; five consecutive days of dosing, Schedule A): significant accumulation
half-life ([2]; human, initial four patients, Schedule A (daily five times a week every 3 weeks), 0.25-0.5 mg/kg, 1-hour IV infusion, read-out: half-life of Compound 1 (converted)): ~20 h
half-life ([2]; prediction made before the study, read-out: predicted half-life (converted)): ~8 h
